Read-outs that look alike come from different tables or passages of the source.
T1: HigA antitoxin of the complexes analysed by size exclusion chromatography (Proteus vulgaris (plasmid Rts1), UniProt Q7A224 1-104)
T1 sequence (looked up): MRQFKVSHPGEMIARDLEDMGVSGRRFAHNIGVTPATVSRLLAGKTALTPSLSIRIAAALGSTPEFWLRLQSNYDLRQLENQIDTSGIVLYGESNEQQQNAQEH

B1: HigB(L5ext), HigB with loop 5 extended by NGNG (natural protein)
chain: MIKSFKHKGLKLLFEKGVTSGVPAQDVDRINDRLQAIDTATEIGELNRQIYKLHPLKGDREGYWSITVRANWRITFQFINGDNGNGAYILNYEDYH
B2: HigA antitoxin with C-terminal His6 tag of the HigBHigA-His6 complex (selenomethionine-derivatized) (natural protein, Proteus vulgaris (plasmid Rts1), UniProt Q7A224 1-104, looked up)
chain: T1 sequence (looked up)
modifications: selenomethionine-derivatized
B3: HigA antitoxin of the His6-HigBHigA complex (natural protein, Proteus vulgaris (plasmid Rts1), UniProt Q7A224 1-104, looked up)
chain: T1 sequence (looked up)
B4: HigB toxin of the His6-HigBHigA complex (natural protein)
chain: MIKSFKHKGLKLLFEKGVTSGVPAQDVDRINDRLQAIDTATEIGELNRQIYKLHPLKGDREGYWSITVRANWRITFQFINGDAYILNYEDYH
B5: Wild-type HigB toxin of the HigB2HigA2 complex analysed by size exclusion chromatography (natural protein)
chain: B4 chain

Assays:
[1] = system: HigB (of wild-type HigB2HigA2 complex);HigA (of wild-type HigB2HigA2 complex) (Proteus vulgaris (plasmid Rts1);Proteus vulgaris (plasmid Rts1)); test: EMSA; details: binding buffer pH not stated ([…]
[2] = target: T1, HigA antitoxin of the complexes …; test: SEC
crystal structure [3] = target: the molecule itself; test: crystal structure
crystal structure [4] = target: the molecule itself; test: crystal structure; remark: listed apart in the source
[5] = target: B3; test: crystal structure

With O1(scrambled)-O2 (O2 only) the Kd [1] was 240 nM.

O1-O2(scrambled) (O1 only) was tested, and the Kd [1] was 360 nM.

B1: binds [2].

With B2 the “stoichiometry N” value (crystal structure [3]) was 2.

With B3 the “stoichiometry N” value (crystal structure [4]) was 2.

B4: binds [5].

B5: binds [2].

Source: article doi:10.1101/2021.03.04.434028 (bioRxiv, 2021)
